# Measured values published in the array DNA melting data of Ke et al..
# Assay: melting temperature; melt of duplexes
# Details: sodium 0.0675 M; strand 1 µM
row,Substance,Tm [°C]
1,CGACGTGCCTCATGTGCTG+CAGCACATGTTGCACGTCG ((((((((..(((((((((+)))))))))..)))))))),52.3
2,CGACGTGCGGGATGTGCTG+CAGCACATGTCGCACGTCG (((((((((..((((((((+))))))))..))))))))),57.8
3,CGACGTGCGAAATGTGCTG+CAGCACATCAGGCACGTCG ((((((((...((((((((+))))))))...)))))))),49.7
4,CGACGTGCCCGATGTGCTG+CAGCACATAAGGCACGTCG (((((((((..((((((((+))))))))..))))))))),54.5
5,CGACGTGCCCGATGTGCTG+CAGCACATATGGCACGTCG (((((((((..((((((((+))))))))..))))))))),54
6,CGACGTGCAACATGTGCTG+CAGCACATATTGCACGTCG ((((((((((.((((((((+)))))))).)))))))))),54.3
7,CGACGTGCTAGATGTGCTG+CAGCACATGCAGCACGTCG (((((((((..((((((((+))))))))..))))))))),53
8,CGACGTGCTTGATGTGCTG+CAGCACATGTAGCACGTCG (((((((((..((((((((+))))))))..))))))))),51.7
9,CGACGTGCCGGATGTGCTG+CAGCACATTGTGCACGTCG ((((((((...((((((((+))))))))...)))))))),47.3
10,CGACGTGCACTATGTGCTG+CAGCACATGTCGCACGTCG ((((((((...((((((((+))))))))...)))))))),46.4
11,CGACGTGCGGCATGTGCTG+CAGCACATGTGGCACGTCG ((((((((..(((((((((+)))))))))..)))))))),56.8
12,CGACGTGCATAATGTGCTG+CAGCACATTACGCACGTCG ((((((((.((((((((((+)))))))))).)))))))),54.4
13,CGACGTGCGGGATGTGCTG+CAGCACATCACGCACGTCG (((((((((.(((((((((+))))))))).))))))))),63.8
14,CGACGTGCCGAATGTGCTG+CAGCACATCAGGCACGTCG (((((((((..((((((((+))))))))..))))))))),55.4
15,CGACGTGCGACATGTGCTG+CAGCACATCCGGCACGTCG ((((((((...((((((((+))))))))...)))))))),48.9
16,CGACGTGCGCGATGTGCTG+CAGCACATTTCGCACGTCG (((((((((..((((((((+))))))))..))))))))),53.5
17,CGACGTGCAAGATGTGCTG+CAGCACATACGGCACGTCG ((((((((...((((((((+))))))))...)))))))),49.2
18,CGACGTGCTCAATGTGCTG+CAGCACATCAGGCACGTCG ((((((((...((((((((+))))))))...)))))))),50.5
19,CGACGTGCCTGATGTGCTG+CAGCACATAGTGCACGTCG ((((((((...((((((((+))))))))...)))))))),46.5
20,CGACGTGCGAGATGTGCTG+CAGCACATTTGGCACGTCG ((((((((.(.((((((((+)))))))).).)))))))),52.5
21,CGACGTGCTGAATGTGCTG+CAGCACATACAGCACGTCG ((((((((((.((((((((+)))))))).)))))))))),58.6
22,CGACGTGCCCAATGTGCTG+CAGCACATAAAGCACGTCG ((((((((...((((((((+))))))))...)))))))),50.1
23,CGACGTGCCCGATGTGCTG+CAGCACATTGAGCACGTCG ((((((((.(.((((((((+)))))))).).)))))))),53.6
24,CGACGTGCATCATGTGCTG+CAGCACATTTTGCACGTCG (((((((((..((((((((+))))))))..))))))))),50.7

row,Substance,Tm [°C]
1,CGACGTGCGCGATGTGCTG+CAGCACATTGCGCACGTCG ((((((((((.((((((((+)))))))).)))))))))),63.5
2,CGACGTGCGTGATGTGCTG+CAGCACATAGAGCACGTCG ((((((((...((((((((+))))))))...)))))))),53.1
3,CGACGTGCACAATGTGCTG+CAGCACATTATGCACGTCG (((((((((.(((((((((+))))))))).))))))))),52.8
4,CGACGTGCAGAATGTGCTG+CAGCACATATTGCACGTCG (((((((((..((((((((+))))))))..))))))))),50.5
5,CGACGTGCATCATGTGCTG+CAGCACATCTCGCACGTCG ((((((((...((((((((+))))))))...)))))))),46.5
6,CGACGTGCTCCATGTGCTG+CAGCACATCTAGCACGTCG (((((((((..((((((((+))))))))..))))))))),49.5
7,CGACGTGCCCAATGTGCTG+CAGCACATCTGGCACGTCG (((((((((..((((((((+))))))))..))))))))),53.8
8,CGACGTGCTAAATGTGCTG+CAGCACATTATGCACGTCG ((((((((..(((((((((+)))))))))..)))))))),53.1
9,CGACGTGCAGGATGTGCTG+CAGCACATCCAGCACGTCG ((((((((.((((((((((+)))))))))).)))))))),59.8
10,CGACGTGCTAGATGTGCTG+CAGCACATCACGCACGTCG ((((((((..(((((((((+)))))))))..)))))))),54.3
11,CGACGTGCCACATGTGCTG+CAGCACATTTCGCACGTCG ((((((((.(.((((((((+)))))))).).)))))))),47.3
12,CGACGTGCTGCATGTGCTG+CAGCACATACCGCACGTCG ((((((((.(.((((((((+)))))))).).)))))))),50.7
13,CGACGTGCCCCATGTGCTG+CAGCACATAACGCACGTCG ((((((((...((((((((+))))))))...)))))))),45.7
14,CGACGTGCTAGATGTGCTG+CAGCACATGGGGCACGTCG ((((((((...((((((((+))))))))...)))))))),51
15,CGACGTGCTATATGTGCTG+CAGCACATACGGCACGTCG ((((((((..(((((((((+)))))))))..)))))))),50.7
16,CGACGTGCTGTATGTGCTG+CAGCACATGATGCACGTCG ((((((((...((((((((+))))))))...)))))))),51.3
17,CGACGTGCGCCATGTGCTG+CAGCACATGGTGCACGTCG ((((((((.((((((((((+)))))))))).)))))))),62.5
18,CGACGTGCCATATGTGCTG+CAGCACATGAGGCACGTCG (((((((((..((((((((+))))))))..))))))))),56.2
19,CGACGTGCGGGATGTGCTG+CAGCACATCTGGCACGTCG ((((((((..(((((((((+)))))))))..)))))))),57.1
20,CGACGTGCCTCATGTGCTG+CAGCACATTCGGCACGTCG (((((((((..((((((((+))))))))..))))))))),53
21,CGACGTGCCACATGTGCTG+CAGCACATACGGCACGTCG (((((((((..((((((((+))))))))..))))))))),53.4
22,CGACGTGCACTATGTGCTG+CAGCACATAGCGCACGTCG ((((((((.((((((((((+)))))))))).)))))))),54.8
23,CGACGTGCCCGATGTGCTG+CAGCACATATCGCACGTCG ((((((((...((((((((+))))))))...)))))))),47.2
24,CGACGTGCAAGATGTGCTG+CAGCACATGGGGCACGTCG ((((((((...((((((((+))))))))...)))))))),50.8

row,Substance,Tm [°C]
1,CGACGTGCGGAATGTGCTG+CAGCACATAATGCACGTCG ((((((((...((((((((+))))))))...)))))))),52
2,CGACGTGCGTGATGTGCTG+CAGCACATTGAGCACGTCG ((((((((...((((((((+))))))))...)))))))),54.7
3,CGACGTGCGTCATGTGCTG+CAGCACATTACGCACGTCG ((((((((((.((((((((+)))))))).)))))))))),57.4
4,CGACGTGCTGTATGTGCTG+CAGCACATATGGCACGTCG ((((((((..(((((((((+)))))))))..)))))))),54.4
5,CGACGTGCCTGATGTGCTG+CAGCACATTAAGCACGTCG ((((((((.(.((((((((+)))))))).).)))))))),50.8
6,CGACGTGCGGAATGTGCTG+CAGCACATGCAGCACGTCG ((((((((.(.((((((((+)))))))).).)))))))),59.9
7,CGACGTGCCATATGTGCTG+CAGCACATGTAGCACGTCG ((((((((.(.((((((((+)))))))).).)))))))),51.3
8,CGACGTGCGGGATGTGCTG+CAGCACATAAAGCACGTCG ((((((((...((((((((+))))))))...)))))))),53.6
9,CGACGTGCCCAATGTGCTG+CAGCACATCAAGCACGTCG ((((((((...((((((((+))))))))...)))))))),48.9
10,CGACGTGCGGAATGTGCTG+CAGCACATTACGCACGTCG (((((((((.(((((((((+))))))))).))))))))),62
11,CGACGTGCGGAATGTGCTG+CAGCACATTCCGCACGTCG (((((((((((((((((((+))))))))))))))))))),66.6
12,CGACGTGCGGGATGTGCTG+CAGCACATGCGGCACGTCG ((((((((.(.((((((((+)))))))).).)))))))),55.4
13,CGACGTGCGGGATGTGCTG+CAGCACATACGGCACGTCG ((((((((.(.((((((((+)))))))).).)))))))),55.6
14,CGACGTGCAGAATGTGCTG+CAGCACATGCTGCACGTCG ((((((((((.((((((((+)))))))).)))))))))),58.6
15,CGACGTGCGGCATGTGCTG+CAGCACATCGAGCACGTCG ((((((((...((((((((+))))))))...)))))))),53.6
16,CGACGTGCGGCATGTGCTG+CAGCACATAGTGCACGTCG ((((((((...((((((((+))))))))...)))))))),45.9
17,CGACGTGCCTAATGTGCTG+CAGCACATTAAGCACGTCG ((((((((.((((((((((+)))))))))).)))))))),53.4
18,CGACGTGCGGAATGTGCTG+CAGCACATCCGGCACGTCG ((((((((.(.((((((((+)))))))).).)))))))),55.7
19,CGACGTGCGCCATGTGCTG+CAGCACATGACGCACGTCG (((((((((.(((((((((+))))))))).))))))))),59.3
20,CGACGTGCAGTATGTGCTG+CAGCACATCAGGCACGTCG ((((((((...((((((((+))))))))...)))))))),50.2
21,CGACGTGCAAGATGTGCTG+CAGCACATCGTGCACGTCG (((((((((.(((((((((+))))))))).))))))))),57.4
22,CGACGTGCCTTATGTGCTG+CAGCACATAATGCACGTCG ((((((((.((((((((((+)))))))))).)))))))),53.7
23,CGACGTGCCGTATGTGCTG+CAGCACATAGAGCACGTCG ((((((((..(((((((((+)))))))))..)))))))),53.1
24,CGACGTGCTGCATGTGCTG+CAGCACATATCGCACGTCG ((((((((...((((((((+))))))))...)))))))),48.3
